These results are taken from doi:10.1101/2021.11.20.466133.

In this data set the target is T1, MsDisA (Mycobacterium smegmatis mc2155, UniProt A0R564 1-372).
T1 sequence: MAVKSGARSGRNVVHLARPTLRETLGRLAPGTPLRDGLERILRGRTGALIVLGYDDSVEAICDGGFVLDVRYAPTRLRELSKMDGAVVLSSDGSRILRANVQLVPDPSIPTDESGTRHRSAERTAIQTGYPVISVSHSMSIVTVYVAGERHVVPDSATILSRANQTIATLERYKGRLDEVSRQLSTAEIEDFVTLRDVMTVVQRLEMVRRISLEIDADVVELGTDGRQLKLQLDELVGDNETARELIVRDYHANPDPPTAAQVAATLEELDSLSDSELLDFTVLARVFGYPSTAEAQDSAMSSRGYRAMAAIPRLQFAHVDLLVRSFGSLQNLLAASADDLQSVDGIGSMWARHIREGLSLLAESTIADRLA
The data set can be described thus: EMSA.

B1: HLDNA (synthetic Holliday junction) (structured_DNA)
DNA 1: ATCGATAGTCTCTAGACAGCATGTCCTAGCAAGCCAGAATTCGGCAGCGT
DNA 2: GACGCTGCCGAATTCTGGCTTGCTAGGACATTCTTTGCCCACGTTGACCC
DNA 3: GGGTCAACGTGGCAAAGAATGTCCTACGTCCGATACGGATAATCGCCAT
DNA 4: ATGGCGATTATCCGTATCGGACGTCGGACATGCTGTCTAGAGACTATCGA
B1: the binding result is “no binding”.

B2: dsDNA 50mer (dsDNA)
DNA 1: GGATACGTAACAACGCTTATGCATCGCCGCCGCTACATCCCTGAGCTGAC
DNA 2: GTCAGCTCAGGGATGTAGCGGCGGCGATGCATAAGCGTTGTTACGTATCC
Regarding B2, the binding result is recorded as “no binding”.
